Test [1] has as its target PDL1 coated on ELISA plates (UniProt Q9NZQ7 19-238, limits assumed). Put plainly: receptor blocking ELISA, biotinylated Fc-PD1 binding to PDL1-coated plates, streptavidin-HRP. An excerpt: (§1) In both cases, binding was detected by using streptavidin linked horse radish peroxidase.
Another test addresses T1, biotinylated Fc-PDL1 (UniProt Q9NZQ7 19-238, limits assumed, biotinylated (site not stated)).
T1 construct: The order of the parts follows the printed name; not shown: Fc portion
Put plainly: receptor blocking ELISA, biotinylated Fc-PDL1 binding to PD1-coated plates, streptavidin-HRP.
Description: as §1
On the technique in general: In an ELISA, binding on a coated surface is turned into a signal by an enzyme label.

Test [2] deals with T2, human PDL1 transgenically expressed on DLD1 cells (human, UniProt Q9NZQ7 19-290).
T2 construct: whole, on cells; also called cell surface PDL1; PDLL
Kind of test: FACS on DLD1 cells expressing human PDL1, fluorescent anti-human-IgG detection; mean, SD 297. The method, then:
To test the ability of the proteins to bind cell surface PDL1, we used DLD1 cells expressing transgenically expressed human PDLL. […] Briefly, 10⁵ cells were incubated with different concentrations of the protein for 30 minutes at 4° C. Cells were washed with PBS and incubated with a fluorescent, anti-human-IgG antibody for 30 minutes at 4° C. Cells were again washed with PBS and binding was detected by FACS.

T1 sequence (Q9NZQ7 19-238 limits assumed): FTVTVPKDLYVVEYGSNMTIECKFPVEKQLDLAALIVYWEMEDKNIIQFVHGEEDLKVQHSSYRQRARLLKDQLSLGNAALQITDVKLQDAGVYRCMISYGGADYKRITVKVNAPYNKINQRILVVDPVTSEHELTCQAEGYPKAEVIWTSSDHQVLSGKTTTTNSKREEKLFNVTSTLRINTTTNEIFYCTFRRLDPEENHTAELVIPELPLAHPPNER
PDL1 coated on ELISA plates, sequence (Q9NZQ7 19-238 limits assumed): as above
T2 sequence (Q9NZQ7 19-290): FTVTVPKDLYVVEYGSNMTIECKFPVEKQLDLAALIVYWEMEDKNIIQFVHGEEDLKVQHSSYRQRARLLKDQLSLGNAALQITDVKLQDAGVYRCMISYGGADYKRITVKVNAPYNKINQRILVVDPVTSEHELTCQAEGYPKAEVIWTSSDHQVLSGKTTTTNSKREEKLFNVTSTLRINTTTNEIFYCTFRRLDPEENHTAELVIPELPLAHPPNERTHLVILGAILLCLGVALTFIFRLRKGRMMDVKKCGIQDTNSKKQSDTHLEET

B1: E3 anti-PDL1 antibody (antibody, human IgG1, kappa, V domains shown)
VH: QIQLVQSGAEVKKPGSSVKVSCKASGGTFSSYAISWVRQAPGQGLEWMGGIIPIFGTANYAQKFQGRVTITADKSTSTAYMELSSLRSEDTAVYYCAGGGAVADNSYWGQGTLVTVSS
VL: DIRMTQSPSSLSASVGDRVTITCRASQGIRNDLGWYQQKPGKAPKLLIYAASSLQSGVPSRFSGSGSGTDFTLTISSLQPEDFATYYCLQDYNYPRTFGQGTKVEIKR
For orientation: IC50 means the concentration at which inhibition is half-maximal. As to B1, the IC50 in test [1] came to 16.6 nM; in the test with biotinylated Fc-PDL1 it was 92.7 nM.

B2: B2 anti-PDL1 antibody (antibody, human IgG1, lambda, V domains shown)
VH: EVQLVESGGGLVQPGGSLRLSCAASGFTFSDYDMIWVRQAPGKGLEWVAVISYDGSNKYYADSVKGRFTISRDNSKNTLYLQMNSLRAEDTAVYYCAKEFFGAFDIWGQGTMVTVSS
VL: SSELTQDPAVSVALGQTVTITCQGDSLNYYYANWFQLKPGQAPVLVLFGKNNRPSGIPDRFSGSYSGSTASLTITGAQAEDDADYYCNSRDSGGNPWVFGGGTKLTVLG
On to B2, for which the IC50 in test [1] was 0.8 nM; in the test with biotinylated Fc-PDL1, 1.39 nM.

B3: E1 anti-PDL1 antibody (antibody, human IgG1, kappa, V domains shown)
VH: QIQLVQSGAEVKMPGASVTISCEASGYNFISYYIHWVRQAPGQGLEWMGFVVPSGGAAGYTQKFQGRLTVTRDTSTSTVYMDLNSLTSDDTAVYYCVREMSGGWFDFWGQGTLVTVSS
VL: DIVMTQSPSSLSASVGDRVTITCRASQGIRNDLGWYQQKPGKAPKLLIYAASTLQSGVPSRFSGSGSGTDFTLTISSLQAEDVAVYYCQQYYSTPLTFGPGTKVDIKR
notes: The full-length entries begin with the secretory leader; The constant region is human IgG1 type; also called parental antibody
Usually EC50 stands for the concentration that produces a half-maximal response. High values mean a less potent agent, low ones a more potent agent. B3 came in with an EC50 in test [2] of 1.96 nM. The values for the concentration for half-maximal inhibition (IC50) (in test [1]; with biotinylated Fc-PDL1) were 1.53 nM and 1.26 nM, respectively.

Values taken from patent publication US20210388049A1 (1GLOBE BIOMEDICAL, published 2021).
